From the nanobody polyreactivity screen of Harvey et al. (2022)

Test: yeast display, Sf9 membrane polyspecificity reagent, FACS + sequencing; frameworks hold sequencing errors
Outline: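 In a synthetic yeast display library (Saccharomyces cerevisiae BJ5465), nanobody expression was induced with galactose for 36–48 hours. FACS gates were set low and high (top ~1%) using anti-HA fluorescence for expression and streptavidin fluorescence for binding of the Sf9 membrane reagent. Each polyreactivity label is drawn from the gate of origin.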

Row | Sequence | polyreactivity (PSR sort gate)
1 | QVHLVESGGGLVQAGGSLRLSCAASGRIIWNYAMGWYRQAPGKERELVASINRSGGTTYYADSVKGRFTISRDNAKNTVYLQMNSLKPEDTAVYYCNTVYYGNFYSTRYDYWGQGTQVTVSS | high polyreactivity
2 | QVHLVESGGGLVQAGGSLRLSCAASGRILGYYAMVWYRQAPGKERELVAAISRGGRTNYADSVKGRFTISRDNAKNTVYLQMNSLKPEDTAVYYCAKDVAGLFHVGALYYYWGQGTQVTVSS | low polyreactivity
3 | QVHLVESGGGLVQAGGSLRLSCAASGRILNWNAMGWYRQAPGKDREFVAAIRTSGGDSTSYADSVKGRFTISRDNAKNTVYLQMTSLKPEDTAVFDCAKTVWWYYRYPFDYWGQGTQVTVSS | low polyreactivity
4 | QVHLVESGGGLVQAGGSLRLSCAASGRILTSNAMGWYRQAPGKERELVAAISWSGGSTYYADSVKGRFTISRVNAKNTVYLQMNSLKPEDTAVYYCAAPFTTTFDYWGQGTLVTVSS | low polyreactivity
5 | QVHLVESGGGLVQAGGSLRLSCAASGRISYFYAMGWYRQAPGKESELVATITTSAGRTYYADSVKGRFTISRDNAKNTVYLLMNSLKPEDTAVYYCAASRYTYPYNYWGQGTQVTVSS | high polyreactivity
6 | QVHLVESGGGLVQAGGSLRLSCAASGRIYKYNAMGWYRQAPGKERELVAAISSGGSTNYADSVKGRFTISRDNAKNTVYLQMNSLKPEDTAVYYCAADGTRVSSFHYLVWLGYWGQGTQVTVSS | low polyreactivity
7 | QVHLVESGGGLVQAGGSLRLSCAASGRNSLRNGMGWYKQAPGKEWELDPAITSGSSTDYADSVKGRFTISRDNAKNTVDLEMNSLKPEDTAVSYCAKDLLQYGPGAGRYDYWGQGTQVTVSS | low polyreactivity
8 | QVHLVESGGGLVQAGGSLRLSCAASGRTFAPNAMGWYIQAPGKERELVAAISYNSGTTYYADSVKGRFTISRDNAKNTVYLQMNSLKPEDTAVYYCAARRYYKYDWGQGTQVTVSS | high polyreactivity
9 | QVHLVESGGGLVQAGGSLRLSCAASGRTFGYYAMGWYRQAPGKERELVATISGRAGRTYYADSVKGRFTISRDNAKNTVYLQMNSLKPEDTAVYYCATRSLQKYYWIANSYGYWGHGTQVTVSS | high polyreactivity
10 | QVHLVESGGGLVQAGGSLRLSCAASGRTFQYNAMGWYRQSPGTERELVAAISWRGARTYYADSVKGRFTISRDYAKNTVYLQMNSLNPEDTAVYYCAAAPYGYRRYEYWGQGTQVTVSS | high polyreactivity
11 | QVHLVESGGGLVQAGGSLRLSCAASGRTFRQYAMGWNIQAPGKERELVATISSGGSTYYADSVKGRFTISRDNAKNTVYLQMNSLKPEDTSVYYCAAASGTKRLYRGTRGDYWGQGTQVTVSS | low polyreactivity
12 | QVHLVESGGGLVQAGGSLRLSCAASGRTFTGYAMGWYRQAPGKEREFVAAISSGGVRTYYADSVKGRFTISRDNAKNTVYLQMNSLKPEDTAVYYCNARQVYYRGTFRYSYDYWGQGTQVTVSS | high polyreactivity
13 | QVHLVESGGGLVQAGGSLRLSCAASGRTFVRYAMGWYRQAPGKERELVAAISLRGGRTYYADSVKGRFTISRDNAKNTVYLQMNSLKPEDTAVYYCAARSYPTGASYDYWGQGTQVTVSS | high polyreactivity
14 | QVHLVESGGGLVQAGGSLRLSCAASGRTFVYNSMGWYRQAPGKERELVAAISSDGASTYYADSVKGRFTISRDNAKNTVYLQMNSLKPEDTAVYYCAADFSYYSYEHYYWGQGTQVTVSS | low polyreactivity
15 | QVHLVESGGGLVQAGGSLRLSCAASGRTFWIYGMGWYRPATGKERELVAAITRSGGSTNYADSVKGRFTLSRDNAKNNVYLQMNSLKPEVTAVYYGAADTWYPGYYAYDYRGQGTQVTVSS | high polyreactivity
16 | QVHLVESGGGLVQAGGSLRLSCAASGRTFYRYAMGWYRQAPGKERELVAAINTGGSTYYADSVKGRFTISRDNAKTTVYLQMNSLKPEVTAVYYCAAEAASWWGYGYWGQGTKVTVSS | high polyreactivity
17 | QVHLVESGGGLVQAGGSLRLSCAASGSIFAVYAMGWYRQAPGKERELVAAITRSGRTSYADSVKGRFTISRDNAKNTVYLQMNSLKPEDTAVFYCAVRTYYPTFGGFYYWGQGTQVTVSS | high polyreactivity
18 | QVHLVESGGGLVQAGGSLRLSCAASGSIFEAYAMGWSRQAPGKERELVAVISWRGGLTYYPDSVKGRFTISRDNAKNTLYLQMNSLKPDDTAVYYCNKAYWWHQVGLPRNYEYWGQGTQVTVSS | low polyreactivity
19 | QVHLVESGGGLVQAGGSLRLSCAASGSIFFDGNAMGWYRQAPGKERELVAAISVSGGSTYYADSVKGRFTISRDNAKNTVYLQMNSLKPEDTAVYYCAKYPSNSYVPGDYWGQGTQVTVSS | low polyreactivity
20 | QVHLVESGGGLVQAGGSLRLSCAASGSIFFGYAKGWYRQAPGKERELVAGMDTGGSTDYADSVTGRFTISRDNAKNTVYLQMNSLKPEDTAVYYWATYSYGAVTVDYWGQGTQVTVSS | low polyreactivity
21 | QVHLVESGGGLVQAGGSLRLSCAASGSIFFGYTMGWYRQAPGKERELVAAITRRGGSTYYADSVKGRFTISRDNAKNTVYLQMNSLKPVDTAVYYCAAEVRRYVIVPYYYWGQGTQVTVSS | high polyreactivity
22 | QVHLVESGGGLVQAGGSLRLSCAASGSIFGSQNAMGWYRQAPGKERELVAAYYTARGARTYYADSVKGRFTISRDNAKNTVYLQMNSLKPEDTAVYYCAPRRYGRYRYDYWGQGTQVTVSS | low polyreactivity

Row | Sequence | polyreactivity (PSR sort gate)
23 | QVHLVESGGGLVQAGGSLRLSCAASGSIFGSYAMGWYRQAPGKERELVASITRVDSTNYADSVKGRFTISRDNAKNTVYLQMNSLKPEDTAVYYCNAGKTIDYRDGVGYDHWGQGTQVTVSS | low polyreactivity
24 | QVHLVESGGGLVQAGGSLRLSCAASGSIFHKNAMGWYRQAPGKERELVAAITSGGTTYYADSVKGRFTISRDNAKNTVYLLMNSLKPEDTAVYYCNAAKFLYRHGFLSAGDMYYWGQGTQVTVSS | high polyreactivity
25 | QVHLVESGGGLVQAGGSLRLSCAASGSIFKYYAMGWYRQAPGKETELVAAISSGGTTNYADSVKGRFTISRDNAKNTVYFQMNSLKPEDTEVYYCAAYSTYFRRRKWGYDYWGQGTQVTVSS | high polyreactivity
26 | QVHLVESGGGLVQAGGSLRLSCAASGSIFLRYAMGWYRKAPGKERVLFAGITSSGGSTYYADSVQGRFTISRDNAKNTVYLQMNSLKPEDTAVYYCARGLYRIYSPVRYGYWGQGTQVTVSS | high polyreactivity
27 | QVHLVESGGGLVQAGGSLRLSCAASGSIFSYYAMGWYRQAPGKERELVAAISQSGGSTYYSDSVKGRFTISRDNAKNTVYLQMNSLKPEDTAVYYCNSGRGTFKRYTALQYWGQGTQVTVSS | low polyreactivity
28 | QVHLVESGGGLVQAGGSLRLSCAASGSIIGLYAMGWYRQAPGKERELVAYITGGGSTYYADSVKGRFTISRDIAKNTVYLQMNSLKPEDTAVYYCNKRGTEIGYDYWGQGTQVTVLS | low polyreactivity
29 | QVHLVESGGGLVQAGGSLRLSCAASGSILGGNAMGWYRQAPGKERELVAAITFSGGGTYYADSVKGRFTISRDNAKNTVYLQMNSLKPEDTAVYYCAADKDGYTYEFDYWGQGTQVTVSS | low polyreactivity
30 | QVHLVESGGGLVQAGGSLRLSCAASGSISTNYPMGWYRPAPGKERQLVAAISSSGGSTYYADSVKGRFTISRDNAKYTVYLQMNSLKPEDTAVYYCAATYWGRAYQGYRNLRYGYWGQGTQVTVSS | high polyreactivity
31 | QVHLVESGGGLVQAGGSLRLSCAASGSNFARNAMGWYRHAPGKERELVAAITYSGGRTYYADSVKGRFTISRDNAKNTVYLQMNSLKPEDTAVFYCAVKSFSGHGDYWGQGTEVTVSS | low polyreactivity
32 | QVHLVESGGGLVQAGGSLRLSCAASGSNYSYYGMGWYRQAPGKERELVAAITDGDGTNYADSVKGRFTISRDNAKNTVYLQMNSLIPEDTAVYYCNRDFWYGVSPGREFYLYDYWGQGTLVTVSS | low polyreactivity
33 | QVHLVESGGGLVQAGGSLRLSCAASGSTFAGNTMGWYRQAPGKERELVASITSDGSTDYADSVKGRFTISRDNAKNTVYLQMNSLKPEDTAVYYCAIARGLSKMDSWGQGTQVTVSS | low polyreactivity
34 | QVHLVESGGGLVQAGGSLRLSCAASGSTFGTNAMGWYRQAPGKERELVARINSSASTTYADSVKGRFTISRDNAKNTVYLQMNSLKPEDTAVYYCAKSSLNIYDYWGQGTQVTVSS | high polyreactivity
35 | QVHLVESGGGLVQAGGSLRLSCAASGSTFGWYAMGWYRPSPGKERELVAAIRSNGGSTYYADSLKGRFTISRDNAKNTVYLQMNSLKPEDTAVFYCAARGSPSKHHWYDYWGQGTQVTVSS | low polyreactivity
36 | QVHLVESGGGLVQAGGSLRLSCAASGSTFLLNAMGWYRQATGKERELVAGITGSGGRTYYADSVKGRFTISRDNAKNTVYLQMNSLKPEDTAVYYCAAYRNLYWYQHEYWGQGTLVTVSS | low polyreactivity
37 | QVHLVESGGGLVQAGGSLRLSCAASGSTFQSNAMGWYRQAPGKERELVATITQSGATTYYADSVKGRFTISRDNAKNTVYLQMNSLNPEDTAVYYCNVDTYQKRWFWLDLDGGYWGQGTQVTVSS | low polyreactivity
38 | QVHLVESGGGLVQAGGSLRLSCAASGSTFRPYAMGWYRQAPGKERELVAAITGSGGSTYYADSVKGRFTISRDNAKNTVYLQMISLKPEDTAVYYCNAVSTWRYYYWGQGTQVTVSS | high polyreactivity
39 | QVHLVESGGGLVQAGGSLRLSCAASGSTFSYYAMGWYRQAPGKERELVAAISRSGGSTYYPDSVKGRFTISRDNAKNTVYLQMNSLKPEDTADYSCNRYYYTVTREFDYWGQGSQVTVSS | low polyreactivity
40 | QVHLVESGGGLVQAGGSLRLSCAASGSTFYENAMGWYIQAPGKERELVAGISRGGGSTYYADSVKGRFTISRDNAKNTVYLQMNSLKPEDSAVYYCAAGSRVQGGYWGQGTQVTVSS | low polyreactivity
41 | QVHLVESGGGLVQAGGSLRLSCAASGSTFYYNAMGWYRLAPGKERELVASISYSGDSTYYADSVKGRFTISRVNAKNTVYLQMNSLKPEDTAVYYCNASTSFRSHLGFLYDYWGQGTQVTVSS | high polyreactivity
42 | QVHLVESGGGLVQAGGSLRLSCAASGYTFKRNAMGWYRQAPGKERELVAAINIRGSSTYYADSVKGRFTISRDNAKNTVYLQMNSLKPEDTAVYYCNAVPRYGYYWGQGTQVTVSS | high polyreactivity
43 | QVHLVESGGGLVQAGGSLRLSCAASGYTIRRNAMGWYRQAPGKERELVAAITSGGSTDYADSVKGRFTISRDNAKNTVYLQMISLKPEDTAVYYCAADGIYRGAWSTVYESPGYDYWGQGTQVTVSS | low polyreactivity
